Measured values as given in US5766897A, “Cysteine-pegylated proteins” (Incyte Pharmaceuticals, Inc., priority 1995, dated 1998).
Positions count from the first letter of the chain named. Names and notes keep the numbering of the source.

B1: PN-1 (protein, UniProt P07093 20-398, looked up)
Glia-derived nexin: SHFNPLSLEELGSNTGIQVFNQIVKSRPHDNIVISPHGIASVLGMLQLGADGRTKKQLAMVMRYGVNGVGKILKKINKAIVSKKNKDIVTVANAVFVKNASEIEVPFVTRNKDVFQCEVRNVNFEDPASACDSINAWVKNETRDMIDNLLSPDLIDGVLTRLVLVNAVYFKGLWKSRFQPENTKKRTFVAADGKSYQVPMLAQLSVFRCGSTSAPNDLWYNFIELPYHGESISMLIALPTESSTPLSAIIPHISTKTIDSWMSIMVPKRVQVILPKFTAVAQTDLKEPLKVLGITDMFDSSKANFAKITTGSENLHVSHILQKAKIEVSEDGTKASAATTAILIARSSPPWFIVDRPFLFFIRHNPTGAVLFMGQINKP
B2: E230C (conjugate, UniProt P07093 20-398, looked up, variant E230C)
Glia-derived nexin: B1 Glia-derived nexin with E230C
modifications: PEG
B3: N99C;N140C (protein, UniProt P07093 20-398, looked up, variant N99C N140C)
Glia-derived nexin: B1 Glia-derived nexin with N99C, N140C
B4: C117S;C131S;C209S (protein, UniProt P07093 20-398, looked up, variant C117S C131S C209S)
Glia-derived nexin: B1 Glia-derived nexin with C117S, C131S, C209S
B5: H252C (conjugate, UniProt P07093 20-398, looked up, variant H252C)
Glia-derived nexin: B1 Glia-derived nexin with H252C
modifications: PEG
B6: N304C (conjugate, UniProt P07093 20-398, looked up, variant N304C)
Glia-derived nexin: B1 Glia-derived nexin with N304C
modifications: PEG
B7: S263C (conjugate, UniProt P07093 20-398, looked up, variant S263C)
Glia-derived nexin: B1 Glia-derived nexin with S263C
modifications: PEG
B8: cysteine-PEGylated N99C;N140C: N99C;N140C PN-1 variant PEGylated at cysteines by reaction with Maleimido-PEG (PEG MW about 5,000) (conjugate, UniProt P07093 20-398, looked up, variant N99C N140C)
Glia-derived nexin: B1 Glia-derived nexin with N99C, N140C
modifications: cysteine-linked maleimido-PEG 5 kDa

Experiments:
Cathepsin G = conditions: background statement; cited from earlier work
Thrombin [1] = target: T1, Thrombin (Homo sapiens, UniProt P00734); assay: thrombin inhibition activity assay (D.4), specific activity; format: biochemical; conditions: for ACTIVITY, AFTER PEG MODIFICATION: after cysteine-PEGylation with Maleimido-PEG; for REL TO WT, BEFORE PEG MODIFICATION: activity relative to wild type PN-1; for REL TO ACTIVITY BEFORE PEG, AFTER PEG MODIFICATION: cysteine-PEGylated protein relative to same protein before PEGylation; for REL TO WT, AFTER PEG MODIFICATION: cysteine-PEGylated protein relative to wild type PN-1
Method: Refolded or soluble protein was tested for capacity to inhibit thrombin in a standard assay. Briefly, serial 2-fold dilutions of PN-1 variant were added to microtiter plate wells (50 μl/well), followed by 50 μl of a 30 μg/ml heparin solution, followed by 1 NIH unit of thrombin in 50 μl. These were allowed to incubate at 25° C. for 15 minutes. Residual thrombin activity was measured by the addition of 50 μl S-2238 (Kabi Pharmaceuticals) at 0.625 mg/ml. PN-1 variants were tested for their ability to inhibit urokinase using the substrate S-2444, plasmin using the substrate S-2390, tPA using the substrate S2288, Factor Xa using the substrate S-2222 or S-2765, kallikrein using the substrate S-2302, human neutrophil elastase using s-AAPV-pna (Sigma), cathepsin G using s-AAPF-pna (Sigma) in a similar manner, with or without the addition of heparin.
Each of the PN-1 site-directed mutant proteins, as well as wild type PN-1, were modified by cysteine-PEGylation using the protocol described in F.2. The activity of wild type PN-1, each of the PN-1 site-directed mutants, and the cysteine-PEGylated wild type and mutant proteins was determined using the assay described in D.4.

[2] = tested on: human neutrophil elastase; conditions: background statement; cited from earlier work
[3] = tested on: human neutrophil elastase; assay: second-order association rate constant vs elastase; format: biochemical
Method: Refolded or soluble protein was tested for capacity to inhibit thrombin in a standard assay. Briefly, serial 2-fold dilutions of PN-1 variant were added to microtiter plate wells (50 μl/well), followed by 50 μl of a 30 μg/ml heparin solution, followed by 1 NIH unit of thrombin in 50 μl. These were allowed to incubate at 25° C. for 15 minutes. Residual thrombin activity was measured by the addition of 50 μl S-2238 (Kabi Pharmaceuticals) at 0.625 mg/ml. […]
The second-order rate association constants were determined for appropriate inhibitors-proteases combinations by combining equal-molar amounts of each protein (determined by titration as above) for various times from 1 second to 4 hours (as appropriate) and following the activity loss. […] Alternatively, the apparent first order rate constant was determined from the slope of a plot of log (normalized activity) vs time. The second order rate constant was calculated by dividing the apparent first order rate constant by the PN-1 (or variant) concentration used.

E. coli = assay: bactericidal effect of PN-1 added to E. coli; format: cell-based; conditions: native PN-1 added to E. coli
Method: Alternatively, PN-1 can be generated in a soluble form within E. coli by adjusting the fermentation conditions. This procedure provides a greater yield of soluble PN-1 as the fermentation temperature is decreased from 37° C. to 26° C. with a concomitant loss in inclusion body material. This is quite an unexpected finding, since PN-1 is bactericidal when native PN-1 is added to E. coli. To purify soluble PN-1, the cell supernatant from the disruption step was clarified by centrifugation and filtration or by treatment with polycations such as polyethyleneimine or Biacryl™ followed by centrifugation and filtration, and the soluble protein was purified as above. The generation of soluble material has many advantages: there is more certainty that the protein is correctly folded, there are no refolding steps, there is greater reproducibility from batch to batch.

Thrombin [4] = target: T1, Thrombin; conditions: background statement; cited from earlier work
[5] = serum half-life after tail vein injection, sandwich ELISA; conditions: rat
Source text: The PN-1 variant N99C;N140C was PEGylated by reaction with the Maleimido-PEG reagent as described above in section G.2. Small scale reactions were first performed to determine the excess of Maleimido-PEG reagent required to drive the reaction to completion, i.e., to PEGylate both the N99C and N140C sites of the protein. The final PEGylation reaction contained about a 3-fold excess of Maleimido-PEG over the amount of N99C;N140C protein in the reaction mixture. Cysteine-PEGylated protein was purified by ion exchange chromatography as described in Section D3 above with an additional final Mono-S ion exchange step. The bis-modified,cysteine-PEGylated N99C;140C protein and unmodified N99C;N140C protein were resuspended in 50 mM PIPES pH 6.7, 150 mM NaCl, 10% glycerol.
The serum half-life of the PEGylated N99C;N140C variant was compared to the half-life of the unmodified N99C;N140C variant by injecting a 0.3 ml of a 3 mg/ml solution containing either the cysteine-PEGylated N99C;N140C or unmodified N99C;N140C into the tail vein of 200 g rats. At 2 min, 10 min, 30 min, 60 min, and 120 min after injection, a 0.5 ml blood sample was collected onto EDTA anticoagulant. The blood samples were centrifuged to separate plasma from blood cells, and the concentration of cysteine-PEGylated N99C;N140C or unmodified N99C;N140C determined by sandwich ELISA as described by Evans et al. (1991) J. Biol. Chem. 266:22307-22312, using a rabbit polyclonal antibody.

Molecule	ACTIVITY, AFTER PEG MODIFICATION (Thrombin [1])	SPECIFIC ACTIVITY, BEFORE PEG MODIFICATION (Thrombin [1])	REL TO WT, BEFORE PEG MODIFICATION (Thrombin [1])	REL TO ACTIVITY BEFORE PEG, AFTER PEG MODIFICATION (Thrombin [1])	REL TO WT, AFTER PEG MODIFICATION (Thrombin [1])	other results
B1	0.017 NIH units of thrombin inhibited per μg PN1 (variant)	0.50 NIH units of thrombin inhibited per μg PN1 (variant)	1	0.03	–	inhibition of cathepsin G (Cathepsin G): does not inhibit; inhibition of elastase [2]: does not inhibit; inhibitory activity against elastase [3]: no inhibitory activity against elastase; effect on E. coli (E. coli): bactericidal; acceleration of thrombin inhibition in the presence of heparin (Thrombin [4]): 50-100 fold
B2	0.20 NIH units of thrombin inhibited per μg PN1 (variant)	0.071 NIH units of thrombin inhibited per μg PN1 (variant)	0.14	2.8	0.40	–
B3	0.40 NIH units of thrombin inhibited per μg PN1 (variant)	0.20 NIH units of thrombin inhibited per μg PN1 (variant)	0.40	2	0.80	t1/2 (serum half-life) ([5]; tail vein injection): 10 to 12 min; total administered amount present in the blood stream ([5]; tail vein injection, 60 min time point): less than 3%
B4	0.50 NIH units of thrombin inhibited per μg PN1 (variant)	0.050 NIH units of thrombin inhibited per μg PN1 (variant)	–	–	–	–
B5	0.25 NIH units of thrombin inhibited per μg PN1 (variant)	0.10 NIH units of thrombin inhibited per μg PN1 (variant)	0.20	2.5	0.50	–
B6	0.17 NIH units of thrombin inhibited per μg PN1 (variant)	0.056 NIH units of thrombin inhibited per μg PN1 (variant)	0.11	3	0.33	–
B7	0.093 NIH units of thrombin inhibited per μg PN1 (variant)	0.05 NIH units of thrombin inhibited per μg PN1 (variant)	0.1	1.86	0.19	–
B8	–	–	–	–	–	change of specific activity with increasing PEGylation reagent in reaction mixture (FIG. 4) (Thrombin [1]; increasing ratio of PEG reagent to protein): increased with an increasing amount of the Maleimido-PEG reagent; activity retained relative to unmodified PN-1 (Thrombin [1]; reacted at a ratio of 3:1 Maleimido-PEG to protein): at least 100%; enhancement of t1/2 by cysteine-PEGylation ([5]; in vivo): about 6 fold; total administered amount present in the blood stream ([5]; in vivo, 60 min): 55-60%; t1/2 (serum half-life) ([5]; in vivo, iv): 60 to 80 min
